{"source": "patent US20080201790A1", "about": "“Method and product for regulating cell responsiveness to external signals” (priority 1993, published 2008)", "molecules": {"B1": {"name": "MEKKCOOH: a truncated activated form of MEKK1 including the entire kinase domain (protein)", "chain": "MAMSASQDALPIVPQLQVENGEDIIIIQQDTPETLPGHTKAKQPYREDAEWLKGQQIGLGAFSSCYQAQDVGTGTLMAVKQVTYVRNTSSEQEEVVEALREEIRMMGHLNHPNIIRMLGATCEKSNYNLFIEWMAGGSVAHLLSKYGAFKESVVINYTEQLLRGLSYLHENQIIHRDVKGANLLIDSTGQRLRIADFGAAARLASKGTGAGEFQGQLLGTIAFMAPEVLRGQQYGRSCDVWSVGCAIIEMACAKPPWNAEKHSNHLALIFKIASATTAPSIPSHLSPGLRDVAVRCLELQPQDRPPSRELLKHPVFRTTW"}}, "test_system": "Swiss 3T3 cells", "assay": "MEKKCOOH-induced cell death after nuclear microinjection of expression plasmids", "format": "cell-based", "description": "Swiss 3T3 and REF52 cells were plated on acid-washed glass cover slips in Dulbecco's Modified Eagle's Medium (DMEM) and 10% bovine calf serum (BCS) or newborn calf serum (NCS). Cells were placed in DMEM/0.1% calf serum for overnight incubation prior to microinjection and used for injection at 50-70% confluence. Injections were performed with an Eppendorf automated microinjection system with needles pulled from glass capillaries on a vertical pipette puller (Kopf, Tujunga, Calif.). Cells were injected with pCMVβ-gal in the presence or absence of pCMV5MEKKCOOH or pCMV5BxBRaf at 20-100 ng/μl for each expression plasmid in 100 mM KC1, 5 mM NaPO4, pH 7.3. Following injection cells were placed in 1% NCS for 12-18 hr (Swiss 3T3) or 42 hr (REF52) prior to fixation with paraformaldehyde and staining. Similar results were obtained when cells were placed in 10% NCS after microinjection. Propidium iodide ([…]) was used to stain DNA. X-Gal reactions were performed for six hr.\nSwiss 3T3 cells were microinjected with 100 ng/μl pCMVβ-gal and 20 ng/μl pCMV5MEKKCOOH. To label free DNA ends fixed and rehydrated cells were incubated with terminal deoxytransferase (TDT) and 10 nM biotin-dUTP following the manufacturer's instructions (Boehringer-Mannheim). Cells were stained with FITC-streptavidin to label DNA fragments. β-gal was detected using rabbit anti-p-gal antibody (Cappel Labs) and a rhodamine-labeled goat anti-rabbit antibody (Cappel Labs).\nSeventeen hours after injection cells were fixed and stained for, β-galactosidase activity with X-Gal. Injected cells attached to the coverslip were scored as positive for cell death when they were highly condensed, small round cells.", "data": [{"molecule": "B1", "values": [{"measurement": "Condensed Cells (percent of cells injected)", "setting": "100 ng/μl plasmids, seventeen hours after injection, X-Gal", "value": "Approximately 84%"}, {"measurement": "cells with cytoplasmic and nuclear morphology characteristic of apoptosis", "setting": "18 hrs postinjection", "value": "Greater than 80%"}, {"measurement": "DNA fragmentation (TDT, biotin-dUTP, streptavidin-FITC)", "setting": "microinjected Swiss 3T3 cells", "value": "significant DNA fragmentation"}, {"measurement": "induction of cell death on expression (in words)", "setting": "microinjected Swiss 3T3 cells", "value": "resulted in significant cell death"}]}]}
